Measurements: a protein production outcome set (Wang et al. 2014)

Assay: label from the status in PepcDB records

Row | Sequence | protein production
1 | MDREQVVALQHQRFAAKKYDPNRRISQKDWEALVEVGRLAPSSIGLEPWKMLLLKNERMKEDLKPMAWGALFGLEGASHFVIYLARKGVTYDSDYVKKVMHEVKKRDYDTNSRFAQIIKNFQENDMKLNSERSLFDWASKQTYIQMANMMMAAAMLGIDSCPIEGYDQEKVEAYLEEKGYLNTAEFGVSVMACFGYRNQEITPKTRWKTEVIYEVIE | not failed
2 | MLDGQSCPLCPSRSSLPAGTSFHQSPMDIVTRTFEAPRTYRPSASVLGRAVRAWTNDRLRGEALYLVAMTGLTILLLMAHYLGWALLTSALAASQGWEPLFWQTQVGSVLVLAGLGLVGFRPAVRVTCRPDAVTLRQGDQTRTLSPPDIQDVRLISAQRYHRHYRRYAATQVFASAVSEQVLCVRTGDGPVIVALPGPEARAALLEHLEALTASASEAAARP | failed
3 | MPDTPLLASSQPAAGRRALGLSARLAFAALAGGGGLAWIDRGDTALWLIAPALLWLQVLLTLAGVLALAGGSRLPGALIVALSAGLLVPPLTVEMRLLGFFLAAPPPDQSILTTAQYTLAGALAAGALAWILARRRFGRPPCSWTMLDCGGPGAEIDMDAALASLSAETLRRRDRAYIDAPPPLPFAPRGPPRPPPPTLGGPRLKRMPAGLGGAILCLESDDHTLRVHTTQGSGTLAGRLGDAALDLGESAGLRVHRSWWVAREAVSAIERDGRRMRLILLNGMDVPVSRAHQPKVLAGPWPNLRVS | failed
4 | MTAPASSLDRFFGLRARGTTVRREILAGTTTFMTMAYILFVNPEILGSAAGAGHFAAILTSTALVAAVMTAAMGLFANLPLALASGMGLNAVVAFGLVLGKKLTYPQAMGVIVAEGVLITLLVATGLRQAVVRAVPMTLKRAIGIGIGLFLAIIGFKAAGFISAGGALLQLGPEGAAGRLTGFPVVLFALTLVFTAWLVSRGVRGALLIGIAVSTAVAVTAKAAFGGAGFAPHVANLPSSIFGLPDFSMLGQVDFSFVAVLGPLAASLAVFSIMLSDFFDTVGTVVAVGQEAKYLDEQGNFPRASTVLMVDSLAAIAGGLAGASSATTYVESAAGAASGGRTGLTSVTTAALFALCLFISPLAGIVPPQATGAVLVLVGYMMMRDVGAIAWDDPSESIPAFLTVTVMPFTYSITNGIGAGFVSYVLLKLAGGKAREVHPLMIGASVAFVVYFAIGG | failed
5 | MSFASETKKELTNLEVKDCCAKAELSALIRMNGSLSFSNRKVVLDVQTENAAIARRIYTLLKKQYDVSVELLVRKKMRLKKNNVYIVRLIENAKPILEDLKILGDNFVIARNISEDLVKKRCCKRSYMRGAFLAGGSVNNPETSSYHLEIFSLYKEHNDSLCRLMNQFHLNSKTLERKKGYITYLKEAEKITEFLNVIGAHNSLLRFEDVRIVRDMRNSVNRLVNCETANLNKTIGASLRQVENIKLIDERIGLDALPEKLREIAQLRIDYQEVTLKELGEMVSSGKISKSGINHRLRKLDEIAEQLR | not failed
6 | MTIHWCGTGLSAIPGLRRLIEAGHALTVWNRTVEKARAELGDLTDDIRAFDIDALGAVLAKGDVVVSMLPGDWHVPLAELAIAKGTHFVSSSYIAPEMRALDERAREAGVSLVNEIGLDPGIDHLMAHELVADYRASDAFDAQNHLSFISYCGGIPKHPNPFRYKFSWSPLGVLKALRSPSRSIRDYAPLDVARPWDAISSYTAPLPTPESFEVYPNRDSLPFMGQYHFKEHWPVKEFVRGTLRLNGWADAWGDVFREIETLSGPEGDARLKEMSDQFWAENAYDQGEPDRVVLCVGLKAEKDGREVWHKSYVMDAWGDARGTAMARLVSIPVSLAVEAVLNREIPAGVHAASSDPKLLARWMAEVATLAQHLQIVDHTA | failed
7 | ERRAPRKGNTLYVYGEDMTPTLLRGAFSPFGNIIDLSMDPPRNCAFVTYEKMESADQAVAELNGTQVESVQLKVNIARKQPMLD | not failed
8 | MKEIKYLIPYVIFTSFSYYFAKNGVEQVSPSLFMGIRYLLSGLILLPFAKKLRITKNIILLAIMTSTSTAFWAYGLLYVSPAESAVLSYSMPIFSLPIAFLMVSERPSKVEIIGIVIGFTGVIIYGIPLMKGFTIFGAVLTISNAVFWASFTVFYRKLKEEDPFSTNAMQFLIGSLFLFALVPLDPSHNFSLSFAVDVIWMATLGGALQFILWNFMVKISAVNRITVLAFAVPIFTTILGVILSHEIPSGLAIAGVIIMFTGIFVSRLKGGISIVRETSG | failed
9 | MLISIESKEHYRILCIDGGSTDQTIPMIERLQRELKHISLIQLQNASIATCINKGLMDIKMTDPHDSDAFMVINPTSIVLPGKLDRLTAAFKNNDNIDMVIGQRAYNYHGEWKLKSADEFIKDNRIVTLTEQPDLLSMMSFDGKLFSAKFAELQCDETLANTYNHAILVKAMQKATDIHLVSQMIVGDNDIDTHATSNDEDFNRYIIEIMKIRQRVMEMLLLPEQRLLYSDMVDRILFNNSLKYYMNEHPAVTHTTIQLVKDYIMSMQHSDYVSQNMFDIINTVEFIGENWDREIYELWRQTLIQVGINRPTYKKFLIQLKGRKFAHRTKSMLKRLEHHHHHH | failed
10 | MVSLTKRCIAEFIGTFILVFFGAGSAAVTLMIASGGTSPNPFNIGIGLLGGLGDWVAIGLAFGFAIAASIYALGNISGCHINPAVTIGLWSVKKFPGREVVPYIIAQLLGAAFGSFIFLQCAGIGAATVGGLGATAPFPGISYWQAMLAEVVGTFLLMITIMGIAVDERAPKGFAGIIIGLTVAGIITTLGNISGSSLNPARTFGPYLNDMIFAGTDLWNYYSIYVIGPIVGAVLAALTYQYLTSE | not failed
11 | MRKIVLFGDSITAGYLDEAVSPVLVDLVKRDIAAMGLEEVAVINAGMPGDTTEDGLKRLNKEVLIEKPDEVVIFFGANDASLDRNITVATFRENLETMIHEIGSEKVILITPPYADSGRRPERPQTRIKELVKVAQEVGAAHNLPVIDLYKAMTVYPGTDEFLQADGLHFSQVGYELLGALIVREIKGRLKPKQA | not failed
12 | MPTALGYVSIGLACGIIGAPYVTPVEMGLMSLFVYAGSAQFAMLALIVVQAPVAAIAMTVFLINLRLFLLSLHASTYFRHTSLWYNIGMSSILTDETYGVLMGELAHTDKVNPMWMHGNNLNSYVAWFVGTVVGTALGGLLPNPEIFGLDFALVGMFIGIFASQFQIMQRRIPVRNLLIILAVVAVSFFLLLTVMSQSLAVLFATLLGCSMGVVLDGQ | failed
13 | MTPNEIAAKLSGLATKYHIRDVTLLAGRLLMSFIFLHEGVTLATHFDGAARAMAALGVGLPLFVATIALQLGAGLSVASGLLTRLGGIGLGLFCLATALLFHTNFASQNELLHFEKDLAISGGMFVLAAVGAGRFSLDWLLAGYLQKRQRDKEMARALLAVENQFSVDVQLPV | failed
14 | MESIWRIATGQDPSREDYEGIEFWSNPERSGWLTKQGDYIKTWRRRWFVLKRGKLLWFKDQAAAGIRGSTPRGVISVGDCLTVKGAEDVVNKPFAFELSSGSYTMFFIADNEKEKEEWINSIGRSIVQHSRSVTDSEVLDYDHRR | failed
15 | MQISDIEVFAAIASSRSLSEAARRLGLSPMAISRRLAALENDLGVRLFHRTTRSVSLTPEGEVFLPHAKTILEASEAARTTLKADAGSASGVLRVTAPSVFGQTVIMPLLPALMLENPALSIDLTLSDSIVDIAGLGIDVAIRIATIRDSALVARSLAPNPRVVCVSPDYLARHGKPTLLEELRHHPCIALHAMPWWPFTRNGEPITIRAQGPFSANSVEAVRTACKQGMGLAMLTYWDVRQEINEGSLQQVDFEDAMPEQLSVTAVLPTRQRVPHRVRLFIDRLEAALKSKAGAAGVTL | failed
16 | ISLKYTAARLHEKGVLLEIEDLQVNQFKNVIFEISPTEEVGDFEVKAKFMGVQMETFMLHYQDLLQLQYEGVAVMKLFDRAKVNVNLLIFLLNKKFYGK | not failed
17 | MEQQRSFQTETGGHLYLVPTPIGNLDDMTFRAVKTLTAVDLIAAEDTRNTQKLLNHFEITTKQISFHEHNTQERIPQLIAKLKQGMQIAQVSDAGMPSISDPGHELVNACIDAHIPVVPLPGANAGLTALIASGLAPQPFYFYGFLDRKPKDRKAEIAGLAQRPETLIFYEAPHRLKKTLQNLAAGFGDERPAVLCRELTKRYEEFLRGSLAELANWAATDTVRGEFVVLVGGNPAPTTAATTAVDLSEPIDVQVDRLIAAGEKPNDAIKEVAKLRGAKKQEIYRQYHHLDEE | not failed
18 | MAEEVRQELSALAAIFCGPNEWEMLSCSETDGAVFRIHTTAEGLVGEDVPLELAFHLPVGYPLCLPGISVTSEHLTRAQCVTAKEKLLGEARKLVSEPMVHELVLWIQQNLRLVLSQPETVSSHEKCTLPESATGDDGPWMTLLRLDHMRARTKYVKAVEKWASELRLTGRLMFMGKLILILLQGDRSNIKEYLILQKTSKVDVDSSGKKCKEKMISVLSETKVQTEHKRFLAFEVKEYSTLEELQKEFGAAGLGELFSECVLGLVK | failed
19 | DYQKEYERKLISPEEAANLVKDGMHIEIGGSANTALIIDKYLAKRKDELSHVEVGTFIDIAHYEFLKADPEQEKIKWESCFLYEPVRKCSKELGPCVHRPGVLSDAGYIAKELGGVLKGGKKYTDIAFLVTTPMDRHGFFNFGVTCTFLKSIAEGAEKVVVVVKKDMPWVNGGYDECIHISEVDYIVEDNEFPTPFLPFLPPPSKEDEMIAENIMEAGLIENGSTLQVGIGGLPNTVVRMLKEAGLKDLGIHTEMMGDGLMELMEEGIVTNQNKKLDRGKAVFSFALGTRKLYDFLDRNPEVATYPVEYTNNPFVVAQQPKMFSLNQVAQIDLMGQINSGQIGLTSPSGKIFQISGTGGQLDFVLGCFYSFDRQGKSVLATYSTYNGTSRIIPALPTGAGVTVPRSVVQYVATEWGIAYLRGLPIYKRAAAMIQLAHPDHRDWLEEEARKLGILPPKYSIPAGKADGVIYRRD | failed
20 | MKAESSNESFIIGQRVHSLNDSRRVGTVKYVGDVEGYSGTWIGVDWDQDGDGKHNGSVNGVFYFNGRSQSSASFVRSQNLSRGITLLQALELRYRTISTKDEEDEMYVLSAGNRRVSIQLLGGDKIQDKLSRFEELTSASLSYLGVSSLGVSSDLGSILPNLKLLDLTGNLISDWEEIGALCEQLPALTTLNLSCNSLSSDIKSLPQLKNIRVLVLNNSGLSWTQVEILRRSLPGIEELHLMGNMISTITSTSSSDDQAFNSLRLLNLDDNCISDWSEVLKLSQLPCLEQLYLNKNKLSRIFQSVNGTESSEKGSDPFPSLSCLLLGANNIGDLASVDALNGFPQLVDIRLSENPISDPVRGGVPRFVLVARLTKVQVLNGSEVRAREKKDSEIRYVRMVMSKLNDKSGEIELLHPRFYELKKLHGIEDERASAENSGPKNIASGLISITLKCVGPSMGEKPHLTKKLPGSITVGKLKILSENFFKLKSIKPRLFLQEEGSPFPTALDDETATLLDVGICDGSTLLVDEES | failed
21 | MIFMNMVNRERELQALKKRLSSNDLELIIIYGRRRIGKTFLIINAVNGYDFIYYLATEKNNLRKFKELTESKYEDIKYVKEDWEAIFHYLRDKIIIIDEFPYMIKEDESILSTFQKIVDETLKGSKTKLILLGSSISMMEDAISYKSPLYGRRTASIELKELKFKDLKGFNFSLIDAIHVYGFAGGVPFYLTKAKTPFLKWINAELKEVDSFIKDEIDFMLRYEFSEIGTYKEILHAISSGKNTLGEIKDFVRISGDVSSYLNKLEKIGIIGKEFPYKMKKGARYYIKDNFTLFWFTFIYPNLSLIEEGIYEIKEDEYNVYLGRIFEKIAREYVEDVYKVKVERLWFKDVEIDIYGDGIAGECKWSEGINGEKVLYELKRKVEDLGLDVKKYIIFAKSFSKTNEEAEFIDLKKLEQWYRTLEHHHHHH | not failed
22 | MLKTILSISGKPGLFKLVSHGKNMLIVESLADKKRVPAYAKDKVISLGDIAIYTNEAEVPLHEVLTNVKNKENGQQASVSTSAKPDELRAYFAEILPNFDRERVYPSDIKKLISWYNILIGAGLTEFTPEGSATEEASVKETKKEEA | failed
